Data on five molecules can be found in patent publication US20240228599A1 (Sanofi, published 2024).

The target of assay [1] is cynomolgus monkey Factor Bb (cynomolgus monkey). Put plainly: cell-based or functional assay.
Assay [2] deals with T1, purified human Factor Bb (human, UniProt P00751 260-764).
T1 construct: Bought purified protein (Complement Technologies); also called fBb; complement factor Bb
As to the kind of experiment: antigen-capture ELISA, ratio of absorbance with biotinylated Factor Bb to that with Factor B. As to the method:
(§1) Preferential binding of factor Bb antibodies to activated factor B versus full length Factor B zymogen was determined in an optimized antigen-capture ELISA format to evaluate binding to target soluble proteins. 1 μg/mL of antibody was bound to goat anti-mouse IgG coated plates (Pierce; Thermo Scientific), followed by incubation with 1 μg/mL biotinylated factor Bb or factor B (Complement Technologies). Bound factor Bb/B proteins were detected with streptavidin-HRP and reacted with TMB 1-Step Ultra TMB-ELISA Substrate Solution (Thermo Scientific). Reactions were stopped with an equal volume of 1N sulfuric acid; and absorbance at OD₄₅₀ₙₘ was measured. The ratio of absorbance of binding by Factor Bb versus Factor B (fBb/B ratio) was calculated and the results are shown in FIG. 3.
Target sequence in this assay (P00751 260-764 limits assumed): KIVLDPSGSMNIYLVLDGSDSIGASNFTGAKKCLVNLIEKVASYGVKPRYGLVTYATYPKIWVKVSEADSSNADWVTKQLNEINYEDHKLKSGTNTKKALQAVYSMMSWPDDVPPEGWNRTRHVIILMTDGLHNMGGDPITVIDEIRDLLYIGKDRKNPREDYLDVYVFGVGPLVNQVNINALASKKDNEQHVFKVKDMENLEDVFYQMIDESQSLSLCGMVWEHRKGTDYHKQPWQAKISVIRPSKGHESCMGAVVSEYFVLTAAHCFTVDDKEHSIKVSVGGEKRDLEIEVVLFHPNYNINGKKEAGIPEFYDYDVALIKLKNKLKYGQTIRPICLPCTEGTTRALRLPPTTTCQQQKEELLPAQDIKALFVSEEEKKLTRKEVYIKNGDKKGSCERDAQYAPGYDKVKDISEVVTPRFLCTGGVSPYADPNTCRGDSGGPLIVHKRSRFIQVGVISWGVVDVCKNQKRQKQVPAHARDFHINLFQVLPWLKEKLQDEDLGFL

Assay [3] has as its target T1, purified human Factor Bb. Put plainly: ELISA on coated human Factor Bb; EC50 calculated with PRISM from the curves of FIG. 1. As to the method: (§2) The relative EC₅₀ values for factor Bb mAbs were determined by ELISA. Unlabeled purified human Factor Bb (Complement Technologies; 1 μg/mL) was coated onto a high binding ELISA plate, and incubated with increasing amounts of purified mAbs (3-fold serial dilutions starting at 10 μg/mL). Horse radish peroxidase (HRP)-conjugated goat anti-mouse secondary antibody (Southern Biotech) was used for detection, and reacted with 3,3′,5,5′-Tetramethylbenzidine (TMB) 1-Step Ultra TMB-ELISA Substrate Solution (Thermo Scientific). Reactions were stopped with an equal volume of 1N sulfuric acid; and absorbance at OD₄₅₀ₙₘ was measured.
Target sequence in this assay (P00751 260-764 limits assumed): as above

For assay [4], the target named is T1, purified human Factor Bb. As to the kind of experiment: antigen-capture ELISA; mAb at 1 µg/mL on goat anti-mouse IgG plates, 1 µg/mL biotinylated Factor Bb or Factor B, streptavidin-HRP; OD450 with Factor Bb divided by OD450 with Factor B. As to the method:
as §1

Assay [5] concerns the target T1, purified human Factor Bb. Put plainly: ELISA; human Factor Bb coated at 1 µg/mL, mAb in 3-fold dilutions from 10 µg/mL, HRP goat anti-mouse, OD450. As to the method:
as §2
Target sequence in this assay (P00751 260-764 limits assumed): as above

For assay [6], the target named is T2, cynomolgus monkey Factor Bb (cynomolgus monkey).
T2 construct: In the serum assays the target is the factor B/Bb of cynomolgus serum; also called cyno Factor Bb
Put plainly: ELISA; cynomolgus Factor Bb coated at 5 µg/mL, mAb in 3-fold dilutions from 10 µg/mL; EC50 by Prism according to the text, headed 'Binding Affinity (M)' on the sheet. As to the method:
as §2
(§3) Factor Bb mAbs were assayed for their ability to bind to cynomolgus monkey Factor B or Factor Bb by ELISA. 5 μg/mL of each purified protein (Innovative Research; purified in-house) was coated onto ELISA plates, incubated with purified factor Bb mAbs (3-fold serial dilutions starting at 10 μg/mL), and bound antibody was detected as in Example 2.
(An ELISA detects its analyte on a solid surface through an enzyme-linked reagent.)

Assay [7] addresses T1, purified human Factor Bb. As to the kind of experiment: antigen-capture ELISA; mAb at 1 µg/mL on goat anti-mouse IgG plates, 1 µg/mL biotinylated Factor Bb or Factor B, streptavidin-HRP; OD450 with Factor Bb divided by OD450 with Factor B; the text rounds this to 5.5. As to the method:
as §1

Assay [8] addresses T1, purified human Factor Bb. Put plainly: cell-based or functional assay.
For assay [9], the target named is T3, cynomolgus monkey Factor Bb (cynomolgus monkey).
T3 chain: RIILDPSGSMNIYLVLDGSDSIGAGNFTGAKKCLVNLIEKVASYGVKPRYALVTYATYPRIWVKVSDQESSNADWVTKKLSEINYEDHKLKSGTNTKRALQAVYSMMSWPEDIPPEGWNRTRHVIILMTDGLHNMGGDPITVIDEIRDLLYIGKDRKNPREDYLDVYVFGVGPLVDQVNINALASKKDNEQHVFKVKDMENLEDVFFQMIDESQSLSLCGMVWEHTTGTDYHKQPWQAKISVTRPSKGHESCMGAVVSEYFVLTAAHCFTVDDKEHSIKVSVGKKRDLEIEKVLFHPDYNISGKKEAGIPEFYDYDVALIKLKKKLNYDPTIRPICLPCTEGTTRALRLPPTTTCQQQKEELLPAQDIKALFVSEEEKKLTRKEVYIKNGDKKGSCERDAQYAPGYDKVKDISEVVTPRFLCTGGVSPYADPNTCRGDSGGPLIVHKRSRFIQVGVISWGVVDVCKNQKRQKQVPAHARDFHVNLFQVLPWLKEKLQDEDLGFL
As to the kind of experiment: ELISA; cynomolgus Factor Bb coated at 5 µg/mL, mAb in 3-fold dilutions from 10 µg/mL; EC50 by Prism according to the text, headed 'Binding Affinity (M)' on the sheet. As to the method: as §2, §3

For assay [10], the target named is T4, full-length Factor B (UniProt P00751 26-764).
T4 construct: Biotinylated in the antigen-capture ELISA, unlabeled in SEC; also called Factor B zymogen; FB
Put plainly: antigen-capture ELISA, antibody on goat anti-mouse IgG plate. As to the method: as §1

For orientation: EC50 means the concentration giving half of the maximal effect. The term EC50 (read off the curve) denotes the concentration needed to bring the measured effect to its halfway point.

B1: anti-factor Bb monoclonal antibody M4 (antibody, V domains shown)
VH: EVQLQQSGPELVKPGASVKMSCKASGYSFTDYLMNWVKQSHGKSLEWIGRINPYNGDAFYNQRFKGKATLTVDKSSSTAHMELRSLTSEDSALYYCARLENDYGFTYWGQGTLVTVSA
VL: DIVMTQAAFSNPVTLGTSASISCSSSKSLLHSNGITYLYWYLQRPGQSPQLLIYRMSNLASGVPDRFSGSGSGTDFTLRISRVEAEDVGVYYCAQMLERPWTFGGGTKLEIK
notes: Mouse monoclonal purified from hybridoma supernatant; also called Factor B/Bb antibody M4
As for B1, the “IC50, hemolysis of rabbit RBCs by 5% cynomolgus monkey serum” value (from here on “IC50 … by 5% cynomolgus monkey serum”) in assay [1] is 25000 pM. Moreover, the fBb/B ratio in [2] was at least 1. Moreover, the EC50 in assay [3] was 874 pM. In addition, the “Ratio OD fBb/fB (ELISA)” value in assay [4] came out at 0.59. Further, in [5], the “EC50 (read off the curve)” value is around 800 pM.

B2: anti-factor Bb monoclonal antibody M12 (antibody, V domains shown)
VH: B1 VH
VL: B1 VL
notes: Mouse monoclonal purified from hybridoma supernatant
For B2, the EC50 in assay [6] was 2550 pM; in assay [3], 761 pM. For the same molecule, the “IC50 … by 5% cynomolgus monkey serum” value in assay [1] came to 28200 pM. Further, in assay [2], the fBb/B ratio is at least 1. The “Ratio OD fBb/fB (ELISA)” value in assay [4] turned out to be 0.82. Besides, in assay [5], the “EC50 (read off the curve)” value was around 700 pM.

B3: anti-factor Bb monoclonal antibody M10 (antibody, V domains shown)
VH: EVQLVESGGALVKPGGSLKLSCAASGFTFSNYAMSWVRQTPEKRLEWVATISNRGSYTYYPDSVKGRFTISRDNAKNTLYLQMSSLRSEDTALYYCARERPMDYWGQGTSVTVSS
VL: DIVMTQSHKFMSTSVGDRVSITCKASQDVGTAVAWYQQKPGQSPKLLIYWASTRHTGVPDRFTGSGSGTDFTLTITNVQSEDLAVYFCHQHSSNPLTFGAGTKLELK
notes: as for B2
As for B3, the midpoint of the response in assay [6], the EC50, lay at 488 pM. Also, the “Ratio OD fBb/fB (ELISA)” value in assay [7] was determined as 5.49. In assay [1], the “IC50, Wieslab AP activity, 5.5% cynomolgus monkey serum” value was determined as 367000 pM and the “IC50 … by 5% cynomolgus monkey serum” value came out at 220000 pM. Moreover, the “IC50, Wieslab AP activity, 5.5% normal human serum” value in assay [8] turned out to be 97900 pM. For the same molecule, the fBb/B ratio in assay [2] worked out at 5.5. Besides, the EC50 in assay [3] is 334 pM. The “EC50 (read off the curve)” value in assay [5] was around 300 pM.

B4: anti-factor Bb monoclonal antibody M18 (antibody, V domains shown)
VH: B3 VH
VL: B3 VL
notes: as for B2
B4: the EC50 in assay [6] was 449 pM; in assay [3], 336 pM. In addition, the “IC50 … by 5% cynomolgus monkey serum” value in assay [1] was determined as 232000 pM. In addition, the fBb/B ratio in [2] came to 8.4. Also, the “EC50 (read off the curve)” value in assay [5] was around 300 pM.

B5: anti-factor Bb monoclonal antibody M17 (antibody, V domains shown)
VH: EVQLVESGGVLVKPGGSLKLSCAASGFTFSNFAMSWVRQTPAKRLEWVATISNGGGYTYYPDSVQGRFTISRDNANNTLYLQMSSLRSEDTALYYCARIYYGSSYEDWFAYWGQGTLVTVSA
VL: DIVMTPSHKFMSTSVGDRVSITCKASQDVGSAVAWYQQKPGHSPKLLIFWASTRHTGVPDRFTGSGSGTDFTLTISNVQSEDLADYFCQQYSSYPYTFGGGTRLEIK
notes: as for B2
As to B5, the results for the EC50 in [9] and in [3] were around 2640 pM and 3140 pM, respectively. In addition, the “Ratio OD fBb/fB (ELISA)” value in assay [4] was 70.7. Also, the binding result in [10] is on record as “no binding (tested: 1 µg/mL biotinylated factor B)”.
